System: transgenic rice plants
Assay: glyphosate resistance of the EPSPS mutant in transgenic rice plants sprayed with Roundup 41% ammonium glyphosate
Assay type: in vivo, rice (Nipponbare)
How it was run: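 EPSPS mutant genes were cloned into pGVP1 and introduced into Nipponbare rice embryo-derived calluses via Agrobacterium EHA105 (OD 0.2, 10 min infection, 2–3 days co-culture at 25 °C in the dark). Calluses went through recovery, two 14-day screening rounds at 30 °C, two differentiation rounds and rooting to regenerate transgenic plants.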

[1] = 1× dosage 1060 g/hectare glyphosate sprayed, recorded on 10th day
[2] = 2× dosage 2120 g/hectare sprayed to plants surviving 1×, recorded 10 days later
[3] = 5× dosage 5300 g/hectare sprayed to plants surviving 2×, recorded 10 days later
[4] = 20× dosage 21200 g/hectare sprayed to plants surviving 5×, recorded 10 days later

Row | Molecule | %++&+++ (percentage of plant having medium and high glyphosate resistance to the total number of plants observed) [1] [%] | number of plants denoted by + (low glyphosate resistance) [1] | number of plants denoted by ++ (medium glyphosate resistance) [1] | number of plants denoted by +++ (high glyphosate resistance) [1] | number of plants denoted by − (no glyphosate resistance) [1] | glyphosate resistance / survival of the rice transformed by the EPSPS, in words (1× glyphosate dosage) | %++&+++ (percentage of plant having medium and high glyphosate resistance to the total number of plants observed) [2] [%] | number of plants denoted by + (low glyphosate resistance) [2] | number of plants denoted by ++ (medium glyphosate resistance) [2] | number of plants denoted by +++ (high glyphosate resistance) [2] | number of plants denoted by − (no glyphosate resistance) [2] | glyphosate resistance / survival of the rice transformed by the EPSPS, in words (2× glyphosate dosage) | &++&+++ (percentage of plant having medium and high glyphosate resistance to the total number of plants observed) [3] [%] | number of plants denoted by + (low glyphosate resistance) [3] | number of plants denoted by ++ (medium glyphosate resistance) [3] | number of plants denoted by +++ (high glyphosate resistance) [3] | number of plants denoted by − (no glyphosate resistance) [3] | &++&+++ (percentage of plant having medium and high glyphosate resistance to the total number of plants observed) [4] [%] | number of plants denoted by + (low glyphosate resistance) [4] | number of plants denoted by ++ (medium glyphosate resistance) [4] | also measured
1 | R1: rice EPSPS mutant, SEQ ID NO: 30, mutation L214(195)P (protein) MASNAAAAAAKAEEIVLQPIREISGAVQLPGSKSLSNRILLLSALSEGTTVVDNLLNSEDVHYMLEALKALGLSVEADKVAKRAVVVGCGGKFPVEKDAKEEVQLFLGNAGTAMRPLTAAVTAAGGNATYVLDGVPRMRERPIGDLVVGLKQLGADVDCFLGTECPPVRVKGIGGLPGGKVKLSGSISSQYLSALLMAAPLALGDVEIEIIDKPISIPYVEMTLRLMERFGVKAEHSDSWDRFYIKGGQKYKSPGNAYVEGDASSASYFLAGAAITGGTVTVQGCGTTSLQGDVKFAEVLEMMGAKVTWTDTSVTVTGPPREPYGKKHLKAVDVNMNKMPDVAMTLAVVALFADGPTAIRDVASWRVKETERMVAIRTELTKLGASVEEGPDYCIITPPEKLNITAIDTYDDHRMAMAFSLAACADVPVTIRDPGCTRKTFPNYFDVLSTFVRN | 63.2 | 1 | 1 | 11 | 6 | obviously superior to that of the rice seedlings transformed by R0 | 55.2 | 3 | 10 | 1 | 10 | some of the transgenic rice seedlings transformed by R1 and R4 still survived | 4.2 | 9 | 1 | 0 | 14 | 0.0 | 4 | 0 | glyphosate resistance / survival of the rice transformed by the EPSPS, in words (5× glyphosate dosage): some of the transgenic rice seedlings transformed by R1 and R4 still survived; number of plants denoted by +++ (high glyphosate resistance) [4]: 0; number of plants denoted by − (no glyphosate resistance) [4]: 20; glyphosate resistance / survival of the rice transformed by the EPSPS, in words (20× glyphosate dosage): some of the transgenic rice seedlings transformed by R1 and R4 still survived
2 | R3: rice EPSPS mutant, SEQ ID NO: 34, mutations L214(195)P and P116(101)S (protein) MASNAAAAAAKAEEIVLQPIREISGAVQLPGSKSLSNRILLLSALSEGTTVVDNLLNSEDVHYMLEALKALGLSVEADKVAKRAVVVGCGGKFPVEKDAKEEVQLFLGNAGTAMRSLTAAVTAAGGNATYVLDGVPRMRERPIGDLVVGLKQLGADVDCFLGTECPPVRVKGIGGLPGGKVKLSGSISSQYLSALLMAAPLALGDVEIEIIDKPISIPYVEMTLRLMERFGVKAEHSDSWDRFYIKGGQKYKSPGNAYVEGDASSASYFLAGAAITGGTVTVQGCGTTSLQGDVKFAEVLEMMGAKVTWTDTSVTVTGPPREPYGKKHLKAVDVNMNKMPDVAMTLAVVALFADGPTAIRDVASWRVKETERMVAIRTELTKLGASVEEGPDYCIITPPEKLNITAIDTYDDHRMAMAFSLAACADVPVTIRDPGCTRKTFPNYFDVLSTFVRN | 76.8 | 18 | 39 | 24 | 1 | had relatively high resistance to glyphosate | 7.5 | 59 | 12 | 10 | 1 | had relatively high resistance to glyphosate | 13.4 | 59 | 11 | 0 | 12 | 7.3 | 28 | 6 | number of plants denoted by +++ (high glyphosate resistance) [4]: 0; number of plants denoted by − (no glyphosate resistance) [4]: 48
3 | R2: rice EPSPS mutant, SEQ ID NO: 32, merely containing the mutation P116(101)S; control (protein) MASNAAAAAAKAEEIVLQPIREISGAVQLPGSKSLSNRILLLSALSEGTTVVDNLLNSEDVHYMLEALKALGLSVEADKVAKRAVVVGCGGKFPVEKDAKEEVQLFLGNAGTAMRSLTAAVTAAGGNATYVLDGVPRMRERPIGDLVVGLKQLGADVDCFLGTECPPVRVKGIGGLPGGKVKLSGSISSQYLSALLMAAPLALGDVEIEIIDKLISIPYVEMTLRLMERFGVKAEHSDSWDRFYIKGGQKYKSPGNAYVEGDASSASYFLAGAAITGGTVTVQGCGTTSLQGDVKFAEVLEMMGAKVTWTDTSVTVTGPPREPYGKKHLKAVDVNMNKMPDVAMTLAVVALFADGPTAIRDVASWRVKETERMVAIRTELTKLGASVEEGPDYCIITPPEKLNITAIDTYDDHRMAMAFSLAACADVPVTIRDPGCTRKTFPNYFDVLSTFVRN | 81.0 | 9 | 10 | 37 | 2 | had relatively high resistance to glyphosate | 26.8 | 17 | 18 | 14 | 9 | had relatively high resistance to glyphosate | 3.4 | 40 | 2 | 0 | 16 | 0.0 | 1 | 0 | number of plants denoted by +++ (high glyphosate resistance) [4]: 0; number of plants denoted by − (no glyphosate resistance) [4]: 57

Source: US11584938B2, “Plant EPSPS mutant containing L195P and S247G mutations and encoding gene and use thereof” (GEVOTO LLC, priority 2017, dated 2023)
